Patent CN111748580A

Legend:
[1] = molecular target: CD33SP-OKT3scFv-CD28TC (鼠抗人CD3抗体 OKT3单链抗体, shown on CHO cells); assay: flow cytometry, 40 nM Biotin-Protein L on CHO cells transfected with OKT3scFv, Streptavidin PE
[2] = molecular target: 全长的人CD226 (hCD226) on Jurkat cells (human) (UniProt Q15762); assay: flow cytometry on Jurkat cells transfected with TIGIT and CD226
[3] = molecular target: T1, PVR (Poliovirus receptor) expressed on CHO-OKT3 cells (Homo sapiens (Human)) (UniProt P15151); assay: flow cytometry, 40 nM TIGIT-Fc on CHO-OKT3 cells transfected with PVR, anti-human Fc-PE
T1 sequence: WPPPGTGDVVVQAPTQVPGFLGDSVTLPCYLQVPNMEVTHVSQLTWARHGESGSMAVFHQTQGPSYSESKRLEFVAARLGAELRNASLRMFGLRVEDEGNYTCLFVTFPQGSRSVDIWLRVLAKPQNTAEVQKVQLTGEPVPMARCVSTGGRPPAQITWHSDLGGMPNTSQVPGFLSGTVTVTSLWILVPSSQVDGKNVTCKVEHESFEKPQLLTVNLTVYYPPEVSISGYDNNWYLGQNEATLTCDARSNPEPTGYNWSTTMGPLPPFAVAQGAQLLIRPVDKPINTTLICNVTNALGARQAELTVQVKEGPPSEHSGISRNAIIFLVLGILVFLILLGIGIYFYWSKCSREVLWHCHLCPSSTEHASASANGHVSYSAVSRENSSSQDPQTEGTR

Sequence of UniProt Q15762 (Q15762 19-336 limits assumed): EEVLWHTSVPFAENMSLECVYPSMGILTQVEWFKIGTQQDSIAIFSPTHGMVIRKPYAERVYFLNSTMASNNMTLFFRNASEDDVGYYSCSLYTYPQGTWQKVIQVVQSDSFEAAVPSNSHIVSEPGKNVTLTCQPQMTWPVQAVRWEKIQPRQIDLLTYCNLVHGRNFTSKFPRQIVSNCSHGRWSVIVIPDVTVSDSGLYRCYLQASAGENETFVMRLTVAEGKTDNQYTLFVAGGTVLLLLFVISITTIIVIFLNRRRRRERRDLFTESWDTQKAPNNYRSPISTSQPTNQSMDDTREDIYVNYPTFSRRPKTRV
Sequence of CD33SP-OKT3scFv-CD28TC (鼠抗人CD3抗体 OKT3单链抗体, shown on CHO cells) (scFv, as listed by the source): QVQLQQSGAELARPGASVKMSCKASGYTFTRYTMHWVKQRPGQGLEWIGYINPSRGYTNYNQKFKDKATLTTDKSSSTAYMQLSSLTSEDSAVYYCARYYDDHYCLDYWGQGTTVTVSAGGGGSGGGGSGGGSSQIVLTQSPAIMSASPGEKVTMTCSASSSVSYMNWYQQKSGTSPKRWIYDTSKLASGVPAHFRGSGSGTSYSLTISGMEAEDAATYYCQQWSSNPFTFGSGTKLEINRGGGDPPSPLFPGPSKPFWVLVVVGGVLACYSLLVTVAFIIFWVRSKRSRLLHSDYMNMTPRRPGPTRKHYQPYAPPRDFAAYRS

## Biotin-Protein L (金斯瑞生物科技, 货号 M00097)
[1]
  阳性率 (percent positive cells): 42.6%

## anti-CD226 PE (R&D Systems, Inc. #FAB666P) (antibody)
[2]
  细胞阳性率 (percent positive cells): 12.7%

B1: TIGIT-Fc蛋白 (Fc fusion, UniProt Q495A1 22-141, looked up, not shown: a dimerising Fc or GST)
chain: MMTGTIETTGNISAEKGGSIILQCHLSSTTAQVTQVNWEQQDQLLAICNADLGWHISPSFKDRVAPGPGLGLTLQSLTVNDTGEYFCIYHTYPDGTYTGRIFLEVLESSVAEHGARFQIP
[3]
  阳性率 (percent positive cells): 93.2%
